Target: purified human fibrinogen (human) (UniProt P02671)
Chain of UniProt P02671 (P02671 36-866, chain 1 of 3): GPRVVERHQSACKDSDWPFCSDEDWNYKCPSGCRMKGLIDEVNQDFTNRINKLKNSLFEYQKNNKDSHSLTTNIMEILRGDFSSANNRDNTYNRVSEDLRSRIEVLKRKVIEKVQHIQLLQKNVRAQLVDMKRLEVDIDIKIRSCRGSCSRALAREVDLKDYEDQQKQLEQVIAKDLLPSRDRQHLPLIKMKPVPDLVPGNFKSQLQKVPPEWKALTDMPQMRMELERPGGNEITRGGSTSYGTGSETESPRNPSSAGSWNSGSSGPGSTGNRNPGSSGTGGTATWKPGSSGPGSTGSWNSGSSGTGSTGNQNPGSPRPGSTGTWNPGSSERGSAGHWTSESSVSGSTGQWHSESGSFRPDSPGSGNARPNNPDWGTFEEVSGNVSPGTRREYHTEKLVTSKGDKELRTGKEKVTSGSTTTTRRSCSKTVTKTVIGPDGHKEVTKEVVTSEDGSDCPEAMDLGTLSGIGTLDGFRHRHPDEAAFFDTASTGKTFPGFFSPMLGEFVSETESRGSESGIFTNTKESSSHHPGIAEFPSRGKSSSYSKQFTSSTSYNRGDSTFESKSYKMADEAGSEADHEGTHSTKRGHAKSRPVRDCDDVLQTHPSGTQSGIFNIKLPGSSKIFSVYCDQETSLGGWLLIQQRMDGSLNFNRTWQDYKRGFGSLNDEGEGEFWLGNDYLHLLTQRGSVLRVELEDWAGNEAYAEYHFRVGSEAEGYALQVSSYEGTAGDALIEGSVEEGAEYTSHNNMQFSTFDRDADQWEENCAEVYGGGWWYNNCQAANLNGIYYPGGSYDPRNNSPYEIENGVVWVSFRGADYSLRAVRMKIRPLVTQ
Chain of UniProt P02671 (P02675 45-491, chain 2 of 3, further chain): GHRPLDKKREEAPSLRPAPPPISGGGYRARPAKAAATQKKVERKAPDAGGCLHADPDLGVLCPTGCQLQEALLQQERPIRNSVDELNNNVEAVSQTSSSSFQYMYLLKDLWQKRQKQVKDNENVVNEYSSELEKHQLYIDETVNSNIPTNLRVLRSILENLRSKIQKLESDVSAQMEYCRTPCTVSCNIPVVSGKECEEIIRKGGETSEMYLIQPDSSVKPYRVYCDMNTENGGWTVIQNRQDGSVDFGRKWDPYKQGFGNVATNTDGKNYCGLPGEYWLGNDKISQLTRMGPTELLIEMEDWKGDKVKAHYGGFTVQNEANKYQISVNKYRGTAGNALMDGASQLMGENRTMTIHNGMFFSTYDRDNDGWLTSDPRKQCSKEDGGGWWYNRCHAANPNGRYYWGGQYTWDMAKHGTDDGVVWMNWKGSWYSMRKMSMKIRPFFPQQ
Chain of UniProt P02671 (P02679 27-453, chain 3 of 3, further chain): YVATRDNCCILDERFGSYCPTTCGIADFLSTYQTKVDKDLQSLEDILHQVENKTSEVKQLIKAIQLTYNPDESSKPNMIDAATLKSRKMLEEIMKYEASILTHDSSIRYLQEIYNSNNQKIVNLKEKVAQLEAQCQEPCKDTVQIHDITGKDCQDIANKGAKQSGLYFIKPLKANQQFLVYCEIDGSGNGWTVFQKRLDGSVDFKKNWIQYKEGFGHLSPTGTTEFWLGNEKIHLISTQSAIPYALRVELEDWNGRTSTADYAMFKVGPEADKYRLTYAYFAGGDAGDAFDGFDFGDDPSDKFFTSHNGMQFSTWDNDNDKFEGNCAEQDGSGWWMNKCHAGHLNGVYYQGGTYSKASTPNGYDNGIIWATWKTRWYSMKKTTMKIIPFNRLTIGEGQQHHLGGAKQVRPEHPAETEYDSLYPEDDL

For “serine-rich repeat glycoprotein Srr1 of Streptococcus agalactiae (native, surface expressed) (natural protein)”, the adherence of GBS strain COH31 to immobilized human fibrinogen (0.1 µM per well), percent of inoculum bound (% of inoculum) was 16.
